The values that follow are results of earlier work, collected in paper PMC2814318.

The Kd is the concentration at which binding is half-saturated.

Series [1] concerns the target CaV β2a subunit (Rattus norvegicus) (UniProt Q8VGC3).
The target in series [2] is CaV β1b subunit (Rattus norvegicus) (UniProt P54283).
Chain of CaV β1b subunit (Rattus norvegicus) (P54283 whole entry): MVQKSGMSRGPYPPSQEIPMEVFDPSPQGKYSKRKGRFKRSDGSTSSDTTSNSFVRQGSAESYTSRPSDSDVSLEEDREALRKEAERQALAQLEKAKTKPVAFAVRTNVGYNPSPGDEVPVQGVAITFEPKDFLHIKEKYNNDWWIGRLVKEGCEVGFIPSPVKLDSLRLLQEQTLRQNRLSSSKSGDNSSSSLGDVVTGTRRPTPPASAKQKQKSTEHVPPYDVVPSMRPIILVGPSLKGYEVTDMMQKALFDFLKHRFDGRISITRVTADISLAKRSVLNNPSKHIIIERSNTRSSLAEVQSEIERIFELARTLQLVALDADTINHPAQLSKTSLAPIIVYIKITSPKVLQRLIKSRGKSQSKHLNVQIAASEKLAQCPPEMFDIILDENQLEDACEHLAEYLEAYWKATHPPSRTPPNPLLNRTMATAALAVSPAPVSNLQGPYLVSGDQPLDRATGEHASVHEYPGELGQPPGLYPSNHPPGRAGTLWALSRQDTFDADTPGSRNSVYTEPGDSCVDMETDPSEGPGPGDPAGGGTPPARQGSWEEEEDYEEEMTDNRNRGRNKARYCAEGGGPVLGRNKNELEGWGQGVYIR

Chain of CaMKIIδ (P15791 2-533, stated change not applied): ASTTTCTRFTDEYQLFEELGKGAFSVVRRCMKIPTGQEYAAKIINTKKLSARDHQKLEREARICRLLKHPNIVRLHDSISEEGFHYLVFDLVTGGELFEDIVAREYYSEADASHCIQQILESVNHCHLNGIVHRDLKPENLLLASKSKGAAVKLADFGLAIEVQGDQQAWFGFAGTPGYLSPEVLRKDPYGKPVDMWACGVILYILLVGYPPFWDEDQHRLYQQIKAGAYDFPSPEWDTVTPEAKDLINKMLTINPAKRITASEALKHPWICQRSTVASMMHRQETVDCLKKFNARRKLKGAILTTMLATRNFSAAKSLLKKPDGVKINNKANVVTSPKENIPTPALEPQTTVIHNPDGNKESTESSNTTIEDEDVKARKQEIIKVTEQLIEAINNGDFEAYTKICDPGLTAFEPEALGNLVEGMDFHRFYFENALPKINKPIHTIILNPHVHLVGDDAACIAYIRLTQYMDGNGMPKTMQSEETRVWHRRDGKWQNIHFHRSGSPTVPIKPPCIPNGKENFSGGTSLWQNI

As to CaMKIIδ (from UniProt P15791), the Kd in series [1] and in series [2] was 100 nM throughout.
